Our source for the Kd values is PMC3743801.

In the experiment the target is C-terminal vinculin homology domain of α-catenin (α-catenin635–906) (UniProt P35221). The experiment is described as follows: fluorescence polarisation; fluorescence anisotropy of FITC-labelled EspB fragments (fluorescein at the N-terminus) and of EspB with α-catenin635–906; KD by nonlinear curve fitting; buffer and temperature not stated. For orientation: In fluorescence polarisation assays a small probe gives low polarisation when free and higher when bound to something large.
Sequence of UniProt P35221 (P35221 635-906): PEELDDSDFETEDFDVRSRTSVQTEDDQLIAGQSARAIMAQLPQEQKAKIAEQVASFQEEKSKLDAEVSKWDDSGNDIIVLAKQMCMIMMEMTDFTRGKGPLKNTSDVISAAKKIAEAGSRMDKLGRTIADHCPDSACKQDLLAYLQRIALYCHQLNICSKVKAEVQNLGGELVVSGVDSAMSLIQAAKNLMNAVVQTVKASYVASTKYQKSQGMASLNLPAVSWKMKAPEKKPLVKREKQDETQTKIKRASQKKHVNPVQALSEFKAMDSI

EspB41–60 (peptide) returned a Kd of 23 µM. Regarding EspB41–70 (peptide), the Kd stood at 2.5 µM. In the case of EspB51–70 (peptide) it was 12 µM; in that of “EspB from enterohaemorrhagic E. coli (EHEC) (natural protein)”, 2.9 µM.

In general, Kd refers to the constant that tells how readily two partners part at equilibrium. A lower Kd goes with a tighter complex.
